Sequences and labels used below:
T1: hPTK7-His (soluble His-tagged human PTK7 extracellular domain) (human, UniProt Q13308 31-704)
T1 construct: also called PTK7-ECD-His; monomeric recombinant hPTK7-His (isoform a)
T1 sequence: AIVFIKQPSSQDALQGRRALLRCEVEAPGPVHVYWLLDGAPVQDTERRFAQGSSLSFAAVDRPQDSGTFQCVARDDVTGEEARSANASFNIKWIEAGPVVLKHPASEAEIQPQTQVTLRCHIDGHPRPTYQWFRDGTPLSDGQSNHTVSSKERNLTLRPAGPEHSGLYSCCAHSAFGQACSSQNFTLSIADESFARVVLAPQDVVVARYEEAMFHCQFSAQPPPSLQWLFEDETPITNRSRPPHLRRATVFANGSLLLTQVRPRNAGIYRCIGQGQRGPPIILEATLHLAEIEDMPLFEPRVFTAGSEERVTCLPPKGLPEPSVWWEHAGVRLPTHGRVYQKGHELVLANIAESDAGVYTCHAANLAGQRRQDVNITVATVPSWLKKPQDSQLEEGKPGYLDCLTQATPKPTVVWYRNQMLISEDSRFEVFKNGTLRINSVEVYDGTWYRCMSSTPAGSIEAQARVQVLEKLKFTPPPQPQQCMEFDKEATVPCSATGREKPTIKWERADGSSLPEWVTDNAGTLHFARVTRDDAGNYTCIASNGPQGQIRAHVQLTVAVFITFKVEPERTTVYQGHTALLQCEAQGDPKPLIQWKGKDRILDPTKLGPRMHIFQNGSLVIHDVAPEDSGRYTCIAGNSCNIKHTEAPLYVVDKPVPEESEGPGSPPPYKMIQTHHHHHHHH

T2: human PTK7, full length, expressed on transduced cells (human, UniProt Q13308 31-1070)
T2 sequence: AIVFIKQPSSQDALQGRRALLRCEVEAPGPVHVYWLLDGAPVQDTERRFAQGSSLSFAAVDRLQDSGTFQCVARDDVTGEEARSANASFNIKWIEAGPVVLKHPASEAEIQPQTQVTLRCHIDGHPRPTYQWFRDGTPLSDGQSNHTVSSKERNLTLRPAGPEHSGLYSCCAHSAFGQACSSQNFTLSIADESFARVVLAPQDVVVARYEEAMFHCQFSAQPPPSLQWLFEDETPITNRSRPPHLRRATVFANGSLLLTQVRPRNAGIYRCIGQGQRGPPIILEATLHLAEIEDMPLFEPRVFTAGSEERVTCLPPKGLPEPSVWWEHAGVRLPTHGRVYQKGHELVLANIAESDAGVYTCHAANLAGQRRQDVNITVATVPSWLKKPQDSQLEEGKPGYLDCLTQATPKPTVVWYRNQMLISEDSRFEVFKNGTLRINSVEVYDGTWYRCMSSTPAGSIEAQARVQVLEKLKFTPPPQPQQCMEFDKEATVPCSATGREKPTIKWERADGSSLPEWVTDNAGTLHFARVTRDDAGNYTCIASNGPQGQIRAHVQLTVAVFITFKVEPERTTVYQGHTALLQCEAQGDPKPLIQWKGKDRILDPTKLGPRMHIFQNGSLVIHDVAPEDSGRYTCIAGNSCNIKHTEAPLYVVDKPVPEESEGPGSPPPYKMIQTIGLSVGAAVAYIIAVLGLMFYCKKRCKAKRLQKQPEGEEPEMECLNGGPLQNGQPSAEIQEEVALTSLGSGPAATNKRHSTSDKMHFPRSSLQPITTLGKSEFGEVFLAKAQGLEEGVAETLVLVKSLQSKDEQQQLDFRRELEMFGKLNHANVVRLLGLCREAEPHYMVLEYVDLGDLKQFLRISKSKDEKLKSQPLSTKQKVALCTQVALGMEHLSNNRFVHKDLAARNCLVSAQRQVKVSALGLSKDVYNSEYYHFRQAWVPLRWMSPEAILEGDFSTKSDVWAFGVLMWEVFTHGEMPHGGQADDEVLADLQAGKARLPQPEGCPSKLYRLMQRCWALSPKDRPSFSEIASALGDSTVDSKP

T3: murine PTK7-His (murine, UniProt Q8BKG3 23-696, limits assumed)
T3 construct: also called mouse PTK7-His; mouse PTK7
T3 sequence (looked up): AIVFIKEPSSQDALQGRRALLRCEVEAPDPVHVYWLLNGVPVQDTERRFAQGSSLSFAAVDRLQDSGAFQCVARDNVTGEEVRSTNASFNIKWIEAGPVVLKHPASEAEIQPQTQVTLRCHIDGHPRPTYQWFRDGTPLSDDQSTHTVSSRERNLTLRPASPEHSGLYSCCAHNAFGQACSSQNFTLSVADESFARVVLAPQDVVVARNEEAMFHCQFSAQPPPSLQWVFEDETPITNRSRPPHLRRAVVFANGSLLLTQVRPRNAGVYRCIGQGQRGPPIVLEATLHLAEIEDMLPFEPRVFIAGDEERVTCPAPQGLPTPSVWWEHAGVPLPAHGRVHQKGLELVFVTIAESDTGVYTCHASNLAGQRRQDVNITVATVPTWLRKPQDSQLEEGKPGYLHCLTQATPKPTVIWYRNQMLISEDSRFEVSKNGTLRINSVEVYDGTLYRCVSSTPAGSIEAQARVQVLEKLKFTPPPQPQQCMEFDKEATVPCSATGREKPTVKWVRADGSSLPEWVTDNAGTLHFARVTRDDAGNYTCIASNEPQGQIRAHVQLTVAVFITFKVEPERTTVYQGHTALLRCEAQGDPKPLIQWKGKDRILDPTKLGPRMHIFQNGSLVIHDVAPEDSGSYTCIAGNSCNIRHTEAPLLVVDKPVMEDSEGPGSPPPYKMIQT

B1: SC6.21 (antibody, V domains shown)
VH: DVQLQESGPGLVKPSQTLSLTCSVPDYSITSDYHWHWIRQFPGNKLEWMGYISSRGSTNYNPSLKNRISITHDTSENQFFLKLTSVTTEDSATYYCAGLSQLALDYWGQGTTLTVSS
VL: DIVMSQSPSSLAVSVGEKVTLSCKSSQSLLYSSTQNNYLAWYQQTPGQSPKLLIYWASTRESGVPDRFTGSGSGTDFTLTISSVKAEDLAVYYCQQYYSYPWTFGGGTKLEIK
notes: Murine monoclonal antibody
B2: hSC6.24 (antibody, human IgG1, V domains shown)
VH: QVQLVQSGPEVKKPGASVKVSCKASGYTFTDYAVHWVRQAPGKRLEWIGVISTYNDYTYNNQDFKGRVTMTRDTSASTAYMELSRLRSEDTAVYYCARGNSYFYALDYWGQGTSVTVSS
VL: EIVLTQSPATLSLSPGERATLSCRASESVDSYGKSFMHWYQQKPGQAPRLLIYRASNLESGIPARFSGSGSGTDFTLTISSLEPEDFAVYYCQQSNEDPWTFGGGTKLEIKR
B3: hSC6.23 (antibody, V domains shown)
VH: QITLKESGPTLVKPTQTLTLTCTFSGFSLSTSNMGVGWIRQPPGKALEWLAHIWWDDDKYYSPSLKSRLTITKDTSKNQVVLTMTNMDPVDTATYYCVRSNYGYAWFAYWGQGTLVTVSS
VL: DIQMTQSPSSLSASVGDRVTITCKASQDIYPYLNWFQQKPGKAPKTLIYRTNRLLDGVPSRFSGSGSGTDFTFTISSLQPEDIATYYCLQYDEFPLTFGAGTKLEIK
notes: Humanized; also called humanized SC6.23
B4: hSC6.58 (antibody, human IgG1, V domains shown)
VH: EVQLVESGGGLVQPGGSLRLSCAASGFDFSRYWMSWVRQAPGKGLEWIGDLNPDSSAINYVDSVKGRFTISRDNAKNSLYLQMNSLRAEDTAVYYCTLITTLVPYTMDFWGQGTSVTVSS
VL: ETTLTQSPAFMSATPGDKVNISCITNTDIDDDMNWYQQKPGEAAILLISEGNGLRPGIPPRFSGSGYGTDFTLTINNIESEDAAYYFCLQSDNLPLTFGSGTKLEIKR
notes: Humanized; also called humanized SC6.58
B5: SC6.58 (antibody, V domains shown)
VH: EVKLLESGGGLVQPGGSLKLSCAASGFDFSRYWMSWVRQAPGKGLEWIGDLNPDSSAINYTPSLKDKFIISRDNAKNTLYLQMSKVRSEDTALYYCTLITTLVPYTMDFWGQGTSVTVSS
VL: ETTVTQSPASLSMAIGEKVTIRCITNTDIDDDMNWYQQKPGEPPKLLISEGNGLRPGVPSRFSSSGYGTDFVFTIENMLSEDVADYYCLQSDNLPLTFGSGTKLEIK
notes: Murine monoclonal antibody, kappa light chain
B6: SC6.41 (antibody, V domains shown)
VH: EVQLQQSGAESVRSGASVKLSCTASGLNIKDYYMHWVNLRPEQGLEWIGWIDPENGDTEYAPEFQGKATMTADTSSNTAYLQLSSLTSEDTAVYYCNACNYGSAYGYWGQGTTLTVSS
VL: DIVLTQATPSVPVTPGESVSISCRSSKSLLHTKGDTYLYWFLQRPGQSPQLLIYRMSNLASGVPDRFSGSGSGTVFTLRISRVEAEDVGVYYCMQHLEYPFTFGSGTKLEIKR
notes: as for B5
B7: SC6.24 (antibody, V domains shown)
VH: QVQLQQSGPEVVRPGVSVKISCKGSGYTFTDYAVHWVKLSHAKSLEWIGVISTYNDYTYNNQDFKGKATMTVDKSSSTAYMELARLTSEDSAIYYCARGNSYFYALDYWGQGTSVTVSS
VL: DIVLTQSPASLAVSLGQRATISCRASESVDSYGKSFMHWYQQRPGQPPKLLIYRASNLESGIPARFSGSGSRTDFTLTINPVEADDVATYYCQQSNEDPWTFGGGTKLEIK
notes: as for B5
B8: SC6.23 (antibody, V domains shown)
VH: QVTLKESGPGILKPSQTLSLTCSFSGFSLSTSNMGVGWIRQPSGKGLEWLAHIWWDDDKYYNPSLKSQLTISKDTSRNQVFLKITSVDTEDTATYYCVRSNYGYAWFAYWGQGTLVTVSA
VL: DIKMTQSPSSMYASLGERVTITCKASQDIYPYLNWFQQKPGKSPKTLIYRTNRLLDGVPSRFSGSGSGQDYSLTISSLDYEDMGIYYCLQYDEFPLTFGAGTKLELK
notes: Murine monoclonal antibody, kappa light chain; also called murine SC6.23
B9: hSC6.41 (antibody, human IgG1, V domains shown)
VH: QVQLVQSGAEVKKPGASVKVSCKASGYTFKDYYMHWVRQAPGQGLEWMGWIDPENGDTEYAPEFQGRVTMTRDTSTSTVYMELSSLRSEDTAVYYCNACNYGSAYGYWGQGTTLTVSS
VL: DIVMTQSPLSLPVTPGEPASISCRSSKSLLHTKGDTYLYWFLQKPGQSPQLLIYRMSNRASGVPDRFSGSGSGTDFTLKISRVEAEDVGVYYCMQHLEYPFTFGQGTKLEIKR
notes: Humanized; also called humanized SC6.41

Where only a bound is given, the exact number is not on record here.

The first assay addresses T1, hPTK7-His (soluble His-tagged human …). Kind of assay: ForteBio (superscript F); column Affinity (nM). For orientation: Biolayer interferometry detects binding as a change in optical thickness at a sensor tip.
Protocol: Specifically, a number of these antibodies were characterized as to affinity, kinetics, binning, and cross reactivity with regard to cynomolgus and murine homologs (e.g., by ForteBio).
In accordance with the instant invention modulator affinity was measured in three ways to ensure accuracy. […] Second, the affinities and kinetic constants kₒₙ and koff of the selected effectors were then measured using bio-layer interferometry analysis on a ForteBio RED (ForteBio, Inc.) with a standard antigen concentration series.
With B1, the equilibrium dissociation constant (Kd) (in general, the free concentration of one partner at which half of the binding sites on the other are occupied at equilibrium, for simple one-to-one binding) is under 0.1 nM.

Another assay has as its target T2, human PTK7, full length, expressed on …. Kind of assay: cell-based or functional assay.
B2: the “reduction in viability of 293.PTK7 cells at 100 pM (Fab-ZAP human)” value is over 80%.
With B3, the “reduction in viability of 293.PTK7 cells at 100 pM (Fab-ZAP human)” value is over 80%.
The same measure, in the same setting: the result for B4 reads over 80%.

A further assay addresses T3, murine PTK7-His. As to the kind of experiment: ForteBio, concentration series of recombinant monomeric antigen.
Protocol: Finally, cross-reactivity with regard to cynomolgus and murine PTK7 homologs were evaluated in with a ForteBio using a concentration series comprising recombinantly expressed, monomeric antigen.
As to B5, the binding result is “binds”.
On to B1, for which the binding result is given as “binds”.
Same read-out and setting: the result for B6 reads “binds”; that for B7, “binds”.
Same read-out and setting: the result for B8 reads “binds”.

The next assay concerns the target T2, human PTK7, full length, expressed on …. Kind of assay: cell-based or functional assay. The source holds these as a separate data set.
For the molecule B5, the “EC50, saporin (Fab-ZAP) cell killing, 293.PTK7 Cells” value amounted to 0.0104 nM.
Same read-out and setting: the result for B1 reads 0.0306 nM.
Take B6: the “EC50, saporin (Fab-ZAP) cell killing, 293.PTK7 Cells” value is 0.0023 nM.
On the same count and under the same terms, the result for B7 reads 0.0023 nM; that for B8, 0.0011 nM.

The target in another assay is T1, hPTK7-His (soluble His-tagged human …). Kind of assay: SPR, Biacore, antigen at 25, 12.5 and 6.25 nM, 1:1 Langmuir model; murine parent antibody. In general terms: SPR reads the build-up and loss of mass on a sensor chip optically.
Turning to B8, the equilibrium dissociation constant (Kd) worked out at 2.3 nM.

A further assay shares this target. Kind of assay: Biacore (paragraph 369 names ForteBio for FIGS. 7C-7E).
Protocol: (§1) Second, the affinities and kinetic constants kₒₙ and koff of the selected effectors were then measured using bio-layer interferometry analysis on a ForteBio RED (ForteBio, Inc.) with a standard antigen concentration series. Finally, the affinity of selected modulators was measured by surface plasmon resonance (Biacore System, GE Healthcare).
B5 gave a Kd of 0.5 nM.
Same read-out and setting: in the case of B6 it was 1 nM; in that of B7, 0.6 nM; in that of B4, 1 nM.
The same measure, in the same setting: the result for B9 reads 2.1 nM.

For another assay the target is unchanged. Kind of assay: SPR, Biacore, antigen at 25, 12.5 and 6.25 nM, 1:1 Langmuir model; humanized construct.
Regarding B3, the Kd was 3.9 nM.

For another assay the target is unchanged. Kind of assay: Biacore (superscript B); column Affinity (nM).
Protocol: as §1
Take B5: binding was characterised by a dissociation constant (Kd) of 0.5 nM.
On the same count and under the same terms, the result for B6 reads 1 nM; that for B7, 0.6 nM.

(Values after patent US20180162952A1 (AbbVie / Abbott, published 2018).)
